Laboratory results published in PMC4534181.

Target: wild-type α1-antitrypsin (recombinant) (human) (UniProt P01009)
Test: native MS; 15 μM α1-antitrypsin incubated with TTAI at peptide:protein molar ratios 0.1:1 to 5:1 for 3 days at 37.5°C in phosphate buffer pH 7.4; exchanged into 200 mM ammonium acetate pH 8; nanoelectrospray, Synapt

Sequence of UniProt P01009 (P01009 25-418): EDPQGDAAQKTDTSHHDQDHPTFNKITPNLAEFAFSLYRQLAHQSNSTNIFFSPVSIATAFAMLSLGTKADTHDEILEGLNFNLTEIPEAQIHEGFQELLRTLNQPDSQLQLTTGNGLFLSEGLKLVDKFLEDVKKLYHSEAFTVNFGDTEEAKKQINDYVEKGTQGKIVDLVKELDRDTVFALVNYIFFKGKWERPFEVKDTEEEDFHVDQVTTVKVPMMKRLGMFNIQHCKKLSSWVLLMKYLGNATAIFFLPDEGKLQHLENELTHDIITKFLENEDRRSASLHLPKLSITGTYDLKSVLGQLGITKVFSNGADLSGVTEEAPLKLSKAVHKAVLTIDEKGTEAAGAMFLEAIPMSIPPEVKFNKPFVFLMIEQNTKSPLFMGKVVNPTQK

stoichiometry N: 2 copies
B1: reactive loop analogue tetrapeptide Thr-Thr-Ala-Ile (TTAI) (peptide)
peptide: Ac-TTAI-NH2
